What was measured:
[1] = biological target: HLA-A*69:01; assay: IEDB peptide-MHC binding, purified MHC/direct/fluorescence; filed as Kd, often an IC50 or EC50 that approximates it; ≥ and ≤ were set here for values at or beyond the usual limits of such assays
[2] = biological target: HLA-A*02:06; assay: IEDB peptide-MHC binding, purified MHC/competitive/radioactivity; filed as Kd, often an IC50 or EC50 that approximates it; ≥ and ≤ were set here for values at or beyond the usual limits of such assays
[3] = biological target: HLA-A*02:02; assay: as above
[4] = biological target: HLA-A*02:03; assay: as above
[5] = biological target: HLA-A*32:01; assay: as above
[6] = biological target: HLA-A*26:01; assay: as above; conditions: source organism: Dengue virus 4 Philippines/H241/1956
[7] = biological target: HLA-A*02:01; assay: IEDB peptide-MHC binding, purified MHC/direct/fluorescence; filed as Kd, often an IC50 or EC50 that approximates it; ≥ and ≤ were set here for values at or beyond the usual limits of such assays; conditions: source organism: Shigella dysenteriae
[8] = source organism: Vaccinia virus WR
[9] = source organism: Dengue virus 1 Brazil/97-11/1997
[10] = source organism: Lassa virus Josiah
[11] = source organism: Mammarenavirus juninense

| Sequence | Kd [2, 8] | Kd [3, 8] | Kd [4, 8] | further results |
| --- | --- | --- | --- | --- |
| TLARGFPFV | – | – | – | Kd ([1]; source organism: West Nile virus): ≤ 0.001 µM |
| IVNTTYDFL | 2.99 µM | 1880 nM | 4680 nM | – |
| RTRCKYVGCT | 11.6 µM | 149 nM | 12300 nM | – |
| VQYENLKYSV | – | – | – | Kd [2, 9]: 0.0312 µM |
| KMLNLNYIV | – | – | – | Kd [5, 8]: 640 nM |
| EDMLAVWNRV | – | – | – | Kd ([5]; source organism: Dengue virus 2 Jamaica/1409/1983): 219 nM |
| EVEDYGFGMF | – | – | – | Kd [6]: 0.0721 µM |
| EVPFCSHHF | – | – | – | Kd [6]: 6.63 µM |
| GVEVRYIDI | 10.2 µM | 12000 nM | ≥ 45300 nM | – |
| EIARIENEM | ≥ 77.1 µM | 335 nM | ≥ 47900 nM | – |
| VTNVIIIVI | – | – | – | Kd [5, 8]: 13.7 nM |
| ILANERYRSA | 7.8 µM | 104 nM | 18.3 nM | – |
| SMMVILPDKI | 0.00567 µM | 28.3 nM | 19.2 nM | – |
| ALELGRKTL | – | – | – | Kd ([1]; source organism: Shigella dysenteriae): ≥ 20 µM; Kd [7]: 8 µM |
| IVAAVIIMA | 3.57 µM | 10400 nM | 2660 nM | – |
| ATALILVSF | – | – | – | Kd [5, 8]: 1.42 nM |
| KTHVSSWEEV | – | – | – | Kd [5, 9]: 6690 nM |
| GMSIVCIVA | 4.51 µM | 190 nM | 656 nM | – |
| STVDVRNIVT | 1.57 µM | 3060 nM | 11600 nM | – |
| RTIYNETSI | – | – | – | Kd [5, 8]: 1.03 nM |
| CLEAKTHFST | ≥ 69.8 µM | 12400 nM | 11100 nM | – |
| IILFQNNDI | 12 µM | 11300 nM | ≥ 52300 nM | – |
| GLFTSLGKA | – | – | – | Kd ([4]; source organism: Dengue virus 4 Dominica/814669/1981): 10.8 nM |
| KMFEATARGA | – | – | – | Kd [4, 9]: 51.1 nM |
| FSTSFYLISI | – | – | – | Kd [2, 10]: 0.00923 µM; Kd [3, 10]: 2.13 nM; Kd [4, 10]: 52.6 nM |
| YCNYTKFWYV | – | – | – | Kd [2, 11]: 0.00654 µM; Kd [3, 11]: 322 nM; Kd [4, 11]: 101 nM |
| FVSTMPVET | 1.54 µM | 1220 nM | 391 nM | – |
